The source of these data is the RNAGym collection of RNA variant scans (doi:10.7554/elife.80360).

B1: HDV Ribozyme (parent)
chain: GGCCGGCAUGGUCCCAGCCUCCUCGCUGGCGCCGGCUGGGCAACAUUCCGAGGGGACCGUCCCCUCGGUAAUGGCGAAUGGGACCCA

The variants in the data set derive from B1. Description: self-cleavage, relative activity (ratio to wild type); higher = more cleavage; co-transcriptional.
Regarding U20A G53U, the self-cleavage came to 0.0959.
Then U20C C62A, with 0; and C21G U46A, with 0.147; and U20C C30A, with 0.0923.
As to U20C C30U, the self-cleavage stood at 0.157.
Then C21U G80U, with 0.0919; and C22A C75U, with 0.128.
Then U20G C44G, with 0; and U20G C44U, with 0.192.
Consider C22A A71G, for which the self-cleavage came to 0.393.
With C22A A71U, the self-cleavage was determined as 0.326.
Then C22A A71C, with 0.0405.
Then C21U C66G, with 0.277; and U20A U27A, with 0.0723; and U20G G74U, with 0.
The same measure for C21U G68A: 0.252; for C21U G68C: 0.0875; for C21U G68U: 0.271.
On to C22A G55C, for which the self-cleavage was 0.262.
In the case of C21A C32G, the self-cleavage was found to be 0.0426.
Then U20G G25U, with 0.166; and C21G U72G, with 0.0462.
Then C21A G54A, with 0.0437; and C21A G74A, with 0.0536; and U20C U37G, with 0.185.
The same measure for U20C U37A: 0.107; for C21U G39C: 0.201.
Consider C21G G52A, for which the self-cleavage is 0.0287.
Then U20C G34C, with 0; and C21U A78U, with 0.148; and C21U A78C, with 0.058.
Then C21G C30G, with 0; and C21A G40A, with 0.0647.
U20G G59U: the self-cleavage worked out at 0.231.
Then U20G G59C, with 0.361; and C21G U69A, with 0.0426.
Then U20A C30G, with 0.095; and U20C A83G, with 0.149.
Then C21G U60G, with 0.
For the variant U20C C58G, the self-cleavage turned out to be 0.0923.
The same measure for U20G G73A: 0.113; for U20G A78U: 0; for C21A G53U: 0.135.
The same measure for U20C C86U: 0.138; for C21G G67A: 0.
The same measure for C22A A43G: 0.151.
For U20A C62U, the self-cleavage turned out to be 0.0475.
Then U20A G39C, with 0.185; and C21U A83C, with 0.108.
The same measure for U20G C32G: 0.0475.
The same measure for U20G G67C: 0.554.
Take C22A C62G: the self-cleavage came out at 0.212.
The same measure for U20C U65A: 0.166.
Then C21U G76A, with 0.271; and U20C C33G, with 0; and C21A C48G, with 0.122.
Take C22A C33A: the self-cleavage worked out at 0.0314.
Then C22A C33U, with 0.191; and C21G A87U, with 0.0723.
The same measure for C21G A87G: 0.0462; for C21G A87C: 0.0594; for U20C G67A: 0.17.
As for U20G G54A, the self-cleavage amounted to 0.201.
The same measure for U20G G54U: 0.125; for U20G A83G: 0.16; for U20G A83C: 0.158.
For the variant C21A C62A, the self-cleavage amounted to 0.185.
Then C21U C41A, with 0.339; and C21U C41U, with 0.267; and U20A U65C, with 0.0639.
Then U20A U65G, with 0.101.
Then C21G C84G, with 0.
As for C21G C84U, the self-cleavage stood at 0.0231.
Then U20C A42U, with 0.0978; and C22A G54A, with 0.197; and U20G U60C, with 0.111.
The same measure for C21U A45G: 0.291; for C21U A45C: 0.0256.
As for C21U C24G, the self-cleavage was determined as 0.0545.
With C21U C24A, the self-cleavage was 0.0997.
For the variant C21G C41U, the self-cleavage worked out at 0.0941.
Then U20G U37G, with 0.
The same measure for U20C G38C: 0.0831; for U20C G38U: 0; for C21U U47G: 0.185.
Regarding C21U U47A, the self-cleavage is 0.363.
U20C G39C: the self-cleavage amounted to 0.185.
Consider U20G U47G, for which the self-cleavage stood at 0.185.
For U20G C66G, the self-cleavage was 0.511.
For U20A C48G, the self-cleavage was 0.
The same measure for C22A A56G: 0.415; for C22A A56C: 0.312.
The same measure for C21A G68C: 0.
The same measure for U20A G34A: 0.0992; for U20A G34C: 0.199; for C22A C85U: 0.345.
For C21G A71U, the self-cleavage was determined as 0.
Then U20A C32U, with 0.0811; and C21U G29U, with 0.0504; and C21U C44A, with 0.437.
The same measure for U20G G76U: 0.388.
Then U20C G82C, with 0.0639.
As for C21G U79G, the self-cleavage was found to be 0.0554.
For the variant C21G A70U, the self-cleavage is 0.111.
Then U20C G73U, with 0.0875.
Then C21G A83C, with 0; and U20A U46G, with 0.166.
C21G U47A: the self-cleavage came out at 0.0773.
Then C21G C85A, with 0.0504; and U20G A71U, with 0.151; and C21A U60A, with 0.0361.
Then C21A U60C, with 0.0739; and C22A A87G, with 0.33; and U20A C84A, with 0.208.
Then U20C G81U, with 0; and C21U A71U, with 0.572; and U20C C41G, with 0.172.
In the case of C21G C86U, the self-cleavage turned out to be 0.0791.
Then U20C C85G, with 0.0519.
The same measure for U20G G34A: 0; for U20A C57A: 0.0978; for U20A C64G: 0.0639.
On to U20A C64A, for which the self-cleavage turned out to be 0.113.
The same measure for C21U A87U: 0.368; for C21G G31U: 0.
For C21G G31C, the self-cleavage was found to be 0.147.
The same measure for C22A G53U: 0.376.
The same measure for C22A A78G: 0.0369; for C22A A78U: 0.
Then C21A U79G, with 0.0396; and C21G U65A, with 0.0536; and U20A G29A, with 0.0773.
For the variant U20C A71C, the self-cleavage came out at 0.0692.
Then C21U G54C, with 0.292.
Then C22A G67U, with 0.259.
Then U20A G73A, with 0.0791.
On to C22A G80A, for which the self-cleavage stood at 0.0479.
C22A C26U: the self-cleavage worked out at 0.578.
The same measure for U20G C33G: 0.185.
Then C21U C26A, with 0.383; and C21U A77G, with 0.232.
The same measure for C21A C63G: 0.0978; for U20G C21U: 0.26; for C21U G40C: 0.166.
Regarding U20C G80A, the self-cleavage amounted to 0.0496.
Then U20A A56C, with 0.0519; and U20A A56G, with 0.0536.
The same measure for U20G U69G: 0.0831; for C21A U72G: 0.166; for C21A C66A: 0.0755.
The same measure for C21A C66U: 0.0683; for U20G U65C: 0.222; for U20G U65A: 0.138.
U20C G76U: the self-cleavage worked out at 0.17.
The same measure for U20C G76A: 0.198; for C21A U27G: 0.0639; for C22A G25C: 0.
The same measure for C22A C36U: 0.149.
The same measure for C22A C36G: 0.0354.
C22A C36A: the self-cleavage was determined as 0.0536.
The same measure for U20G C61A: 0.142.
The same measure for C22A C63U: 0.157.
As for C22A C63A, the self-cleavage worked out at 0.166.
Then C22A C63G, with 0.369; and U20G C41A, with 0.145.
As to C21U G34U, the self-cleavage came out at 0.0354.
The same measure for C21A A70G: 0.
